biological target: HLA-A*02:01; assay: IEDB peptide-MHC binding, cellular MHC/competitive/fluorescence; ≥ and ≤ were set here for values at or beyond the usual limits of such assays; conditions: source organism: Vaccinia virus WR

Point of comparison: KVTINNLKMM, IC50 35.7 µM. Against it:
- VTKTDGIPIT — within 1.5-fold, 27.5 µM
- LTSGEYKQCL — 1.8-fold lower, 20.2 µM
- NQCMSANEAA — 1.9-fold higher, 67.6 µM
- ILFLLFVCI — 6.3-fold lower, 5.69 µM
- SIDRLSLNRT — 7-fold lower, 5.1 µM
- ETSFIFIET — 4-fold lower, 8.82 µM
- PVSKVKSCL — 2.5-fold lower, 14.3 µM
- KAVIEYDDI — within 1.5-fold, 37.6 µM
- IVARRKDQT — higher, ≥ 70 µM
- LIKLIEPVNA — 1.6-fold higher, 55.6 µM
- DVTAKSSFV — 4.2-fold lower, 8.56 µM
- SISKSNAKCI — higher, ≥ 70 µM
- IIHTGCSQVM — 2.9-fold lower, 12.4 µM
- TMDGDKLSKL — higher, ≥ 70 µM
- LVKLSSYHVV — 2.5-fold lower, 14.4 µM
- PTMKIFYKHI — higher, ≥ 70 µM
- ELVFIKPPL — within 1.5-fold, 28 µM
- FIVISPMGKL — 1.8-fold lower, 20 µM

biological target: HLA-A*02:01; assay: IEDB peptide-MHC binding, purified MHC/competitive/radioactivity; ≥ and ≤ were set here for values at or beyond the usual limits of such assays; conditions: source organism: Hepatitis B virus

GLSPTVWLSV gave an IC50 of 29 nM.

same assay, conditions: source organism: Mammarenavirus brazilense

Point of comparison: ALTSLGLLYT, IC50 593 nM. Against it:
- EAINIALIAV — 2.5-fold higher, 1480 nM
- GLFQLIFFLT — 2.1-fold higher, 1230 nM
- TLVDICFWST — 46-fold lower, 13 nM
- FTTTLFLHLV — within 1.5-fold, 473 nM

same assay, conditions: source organism: Mammarenavirus choriomeningitidis

With ALPHIIDEV the IC50 was 57 nM.

same assay, conditions: source organism: Mammarenavirus juninense

Point of comparison: SLIAIIKGIV, IC50 763 nM. Against it:
- GLFQFFVFL — 1.5-fold lower, 495 nM

same assay, conditions: source organism: Mammarenavirus machupoense

Point of comparison: GLYMGNLSQL, IC50 72 nM. Against it:
- FLQEALNIAL — 4.5-fold lower, 16 nM
- FLPKAAFAL — 2.4-fold lower, 30 nM

same assay, conditions: source organism: Mammarenavirus whitewaterense

Point of comparison: TLKSFFAWSL, IC50 1340 nM. Against it:
- ALIAVSIISI — 5.4-fold lower, 246 nM
- GLTDLGLLYT — 13-fold lower, 102 nM

same assay, conditions: source organism: Vaccinia virus WR

Point of comparison: PLLNIGIVL, IC50 1420 nM. Against it:
- YLIHDNIMYT — 1100-fold lower, 1.3 nM
- QLLEAVYGNI — 7.1-fold lower, 199 nM
- LLSQYLSRV — 1400-fold lower, 1 nM
- SIYECITFL — 18-fold lower, 77 nM
- ALWIPDLFM — 10000-fold lower, 0.14 nM
- PMLYQLLEA — within 1.5-fold, 1070 nM
- MASPENVIL — 1.7-fold lower, 846 nM
- LTIMGVIFLI — 150-fold lower, 9.4 nM
- IIIPFIAYFV — 1200-fold lower, 1.2 nM
- NLNMTDGDSV — 3-fold higher, 4320 nM
- YLNTNKLFFA — 140-fold lower, 9.9 nM
- LLYLILFLL — 1.5-fold higher, 2200 nM
- FTYYPTNKL — within 1.5-fold, 1730 nM
- STAVNEEWL — 3.3-fold higher, 4690 nM
- TIIFVLISI — within 1.5-fold, 1180 nM
- HMNEIRINI — 2.1-fold lower, 670 nM
- QLVDAIDNI — 9.2-fold lower, 154 nM
- YLSAKITTL — 260-fold lower, 5.5 nM
- LMIFISSFLL — 53-fold lower, 27 nM
- LIAFSSGTV — within 1.5-fold, 1810 nM
- PAVVYSTCTV — 1.6-fold higher, 2310 nM
- FLLRSIIVA — 460-fold lower, 3.1 nM
- STIDGRIVTL — 1.9-fold lower, 736 nM
- YLFNAIETM — 950-fold lower, 1.5 nM
- LMPIRTDTT — 1.5-fold higher, 2170 nM
- TLLCVLPAVV — 570-fold lower, 2.5 nM
- SMMNRDKIPI — within 1.5-fold, 1360 nM
- VLPNKVRIFI — within 1.5-fold, 1310 nM
- RLNDFLGLL — 130-fold lower, 11 nM
- SILISLTNEI — 5-fold lower, 283 nM
- HLMFYTLPI — 2100-fold lower, 0.67 nM
- RLKSSQTIEL — 4.2-fold lower, 338 nM
- SISVVFSTNL — 2-fold higher, 2890 nM
- YTINCLLYI — 280-fold lower, 5.1 nM
- CISQHQHLA — 3.2-fold lower, 449 nM
- SLSLHPLYV — 140-fold lower, 9.8 nM
- KLLLWFNYL — 710-fold lower, 2 nM
- LVDAIDNIV — 38-fold lower, 37 nM
- LLHVFQEYRL — 53-fold lower, 27 nM
- VIFLISVIVL — within 1.5-fold, 1540 nM
- KTDGIPITI — 30-fold lower, 48 nM
- IVSKLTFLDV — 17-fold lower, 85 nM
- ALMRRIAVV — 790-fold lower, 1.8 nM
- IIFGESSIFV — 1100-fold lower, 1.3 nM
- FTFSNVCESV — 590-fold lower, 2.4 nM
- SIDIETESV — 6-fold lower, 235 nM
- GLDLENLYAV — 410-fold lower, 3.5 nM
- RVFNEYGFV — 7.5-fold lower, 190 nM
- EVGIKSVVV — 12-fold lower, 123 nM
- WLIGFDFDV — 24000-fold lower, 0.06 nM
- SMSSYDFST — 4200-fold lower, 0.34 nM
- RLLDLFGPEV — 1400-fold lower, 0.98 nM
- NLPSSENYM — 11-fold lower, 135 nM
- DMIDNLNIV — 1.7-fold higher, 2360 nM
- QLVWENFLA — 65-fold lower, 22 nM
- TMLSIILVI — 1000-fold lower, 1.4 nM
- YIIDWMVDI — 1500-fold lower, 0.92 nM
- IVFNLPVSKV — 27-fold lower, 53 nM
- FLRYLLFGI — 570-fold lower, 2.5 nM
- EILGIAHLL — 3-fold higher, 4330 nM

From the Immune Epitope Database (IEDB)
